Here are results for one molecule from US20060134801A1, “Methods and compositions involving MDA-7” (Board of Regents, The University of Texas System, priority 2003, published 2006).

For one data set, the system named is A549 tumor xenografts. Briefly: A549 xenograft tumors with 293-mda-7 cells (mixing and distant implant). The data set is classed as in vivo, nude mice. Particulars: 3 days postimplantation of 293-mda-7 cells. On the procedure: […] 293 cells and 293-mda-7 cells were first tested for their ability to form tumors. […] No tumors formed at this cell concentration, so subsequent experiments were performed using this cell number. For in vivo mixing experiments, human lung tumor cells (A549) grown to 90% confluency were trypsinized, washed, and resuspended in sterile phosphate-buffered saline at a concentration of 5×10^6/ml. The tumor-cell suspension was mixed with an equal number (5×10^6/ml) of parental 293 cells or with 293-mda-7 cells, gently vortexed, and injected subcutaneously in nude mice (10^6 cells/animal) as described above. Each group comprised of eight animals, and the experiments were done twice. Tumor growth was monitored and measured as described previously (Saeki et al., 2002). At the end of the experiment, animals were euthanized by CO2 inhalation, and tumors were harvested for histopathological analysis, western blot analysis, and for CD31 and TUNEL staining.
To evaluate the systemic effect of sMDA-7 on tumor growth, subcutaneous tumors were established by injecting A549 tumor cells (5×10^6 cells) into the lower right flank of nude mice. […] The effect of sMDA-7 on tumor growth was monitored as described above. […]
Tumor tissues were stained for CD31 and TUNEL as previously described (Saeki et al., 2002). […] Tissue sections were analyzed and quantitated, and the results interpreted in a blind fashion.

The test system of another data set is STAT-3. Briefly: STAT-3 activation, western blot and immunofluorescence. It is filed as cell-based, human. To be noted: HUVEC; 10 ng/ml; 4 h to 24 h. On the procedure:
Therefore, studies were conducted to determine the activation of STAT-3 expression in endothelial cells after treatment with sMDA-7. HUVEC were seeded in 6-well plates (5×10^5 cells/well) and treated with sMDA-7 (10 ng/ml). Untreated cells served as negative controls. Cells were harvested at 4 h and 24 h after treatment and analyzed for STAT-3 expression by western blot analysis as previously described (Mhashilkar et al., 2001; Pataer et al., 2002). […] (pSTAT-3) protein was detected using rabbit anti-human pSTAT-3 antibody (1:1000, Cell Signaling Technology, Beverly, Mass.) and horseradish peroxidase-labeled secondary antibody (Amersham Biosciences, Piscataway, N.J.). Finally, the proteins were visualized on enhanced chemiluminescence film (Hyperfilm, Amersham Biosciences, Piscataway, N.J.) by application of Amersham's enhanced chemiluminescence western blotting detection system. STAT-3 protein expression level was quantitated after normalization with total STAT-3 protein expression using Image Quant software (Molecular Dynamics, Amersham Pharmacia Biotech, Piscataway, N.J.).
Activation of STAT-3 was also determined by immunofluorescence assay. […] Pictures were taken through a fluorescence microscope 1-2 h after staining.
In general terms: Immunoblotting shows a protein as a band on a membrane.

For another data set, the system named is A549 and H1299. As to the kind of experiment: Effect of secreted MDA-7 protein on lung cancer cells. It is filed as cell-based, human. On the procedure: The number of apoptotic cells was measured by propidium iodide staining and FACS analysis. Cells were harvested, pelleted by centrifugation and resuspended in phosphate-buffered saline containing 50 μg/ml propidium iodide, 0.1% Triton X-100, and 0.1% sodium citrate. Samples were stored at 4° C. for 1-3 hours and vortexed prior to FACS analysis (Becton-Dickenson FACScan, Mountain View, Calif.; FL-3 channel).

Another data set relates to HUVECs. As to the kind of experiment: Clonogenic survival of endothelial cells after irradiation. To be noted: MDA-7 protein 10 ng/ml; angiostatin, endostatin 100 ng/ml; 12 h before irradiation. It is filed as cell-based, human. On the procedure:
Twelve hours after seeding HUVECs in 4-well plates (Nunc, Roskilde, Denmark), medium was replaced with serum/growth factor-free medium. After serum/growth factor starvation for 12 hours, cells were treated with complete medium containing either MDA-7 protein (10 ng/ml) (removed from cultures of 293 cells), angiostatin (100 ng/ml), or endostatin (100 ng/ml). Twelve hours later, cells were irradiated with ^137CS unit (3.4 Gy/min) at room temperature, trypsinized and counted. Known numbers of cells were replated in 60 mm culture dishes and incubated to allow macroscopic colony development. Colonies were counted after 14 days, and the percent plating efficiency and surviving fractions following given treatments were calculated based on the survival of non-irradiated cells.

The test system of a further data set is melanoma cell lines. Briefly: Trypan blue viability, melanoma cell lines (panel). The data set is classed as cell-based, human. An excerpt:
rhMDA-7 (IL-24) protein was purified from 293-mda7 cells using affinity chromatography. Various lots of protein ranged from 30% ->80% purity based upon silver stain. The rhMDA-7 protein was applied to melanoma cell lines, and cells assessed for viability using the Trypan blue assay. […] Treatment of melanoma cells with rhMDA-7 results in rapid activation (via phosphorylation) of STAT3. The cytotoxicity observed in melanoma cells is inhibited by anti-MDA-7 antibodies.
The mechanism of the anti-tumor activity of rhMDA-7 was also evaluated. Melanoma cells were treated with rhMDA-7 protein and assessed for apoptosis using the TUNEL assay. […] These studies were performed with purified rhMDA-7 protein. The melanoma cells have also been treated with supernatant from 293-mda7 cells or control 293 cells. Only the 293-mda7 supernatant causes cell killing.

Data set [1] has as its system bFGF-induced angiogenesis. As to the kind of experiment: In vivo Matrigel plug angiogenesis assay. On the set-up: species or system athymic nude mice. To be noted: 12.5 ng in Matrigel with 60 ng bFGF; 10 days. On the procedure:
To determine the antiangiogenic activity of sMDA-7, an in vivo angiogenesis assay was performed. Briefly, sMDA-7 (12.5 ng) and bFGF (60 ng) was mixed with 500 μl of Matrigel (Beckton Dickinson, Bedford, Mass.) on ice and injected subcutaneously into athymic nude mice. Animals receiving Matrigel containing only bFGF (60 ng) served as positive controls and animals receiving Matrigel containing no growth factor served as negative controls. Each group comprised of five animals and the experiments were performed twice. Animals were sacrificed 10 days after injection. The Matrigel plugs were recovered, photographed, and subjected to hemoglobin analysis as previously described (Pessaniti et al., 1992).

B1: sMDA-7: soluble secreted human MDA-7 (IL-24) protein purified from stably transfected 293-mda-7 cells (protein)
chain: AQGQEFHFGPCQVKGVVPQKLWEAFWAVKDTMQAQDNITSARLLQQEVLQNVSDAESCYLVHTLLEFYLKTVFKNYHNRTVEVRTLKSFSTLANNFVLIVSQLQPSQENEMFSIRDSAHRRFLLFRRAFKQLDVEAALTKALGEVDILLTWMQKFYKL
On to B1, for which the “serum level of circulating sMDA-7 by ELISA” value in the data set with A549 tumor xenografts is “approximately 50 ng/ml”. In the data set with STAT-3, the “increase in pSTAT-3 expression over PBS treated control” value was 2-3 times. For the same molecule, in the data set on A549 and H1299, the “cell growth inhibition or cell death” value is recorded as “did not induce cell growth inhibition or cell death”. For the same molecule, the “radiosensitization of HUVECs” value in the data set on HUVECs is “sensitized”. In addition, the “death in melanoma cells” value in the data set on melanoma cell lines (0-20 ng/ml, 4 days) is “dose-dependent death”. Further, the “melanoma lines showing cytotoxicity” value in the data set on melanoma cell lines (40 ng/ml for 3 days) was 5 of 6. The “bFGF-induced angiogenesis (hemoglobin)” value in data set [1] is given as “significantly inhibited”.
